# Experimental data from patent US20140274782A1, “AFFINITY REAGENTS AND METHODS FOR DETECTION, PURIFICATION, AND PROTEOMIC ANALYSIS OF METHYLATED PROTEINS” (The Board of Trustees of the Leland Stanford Junior …, priority 2013, published 2014).
# T1: G9a and GLP (Homo sapiens, UniProt Q96KQ7+Q9H9B1)
# T1 sequence (Q96KQ7 2-1210 limits assumed): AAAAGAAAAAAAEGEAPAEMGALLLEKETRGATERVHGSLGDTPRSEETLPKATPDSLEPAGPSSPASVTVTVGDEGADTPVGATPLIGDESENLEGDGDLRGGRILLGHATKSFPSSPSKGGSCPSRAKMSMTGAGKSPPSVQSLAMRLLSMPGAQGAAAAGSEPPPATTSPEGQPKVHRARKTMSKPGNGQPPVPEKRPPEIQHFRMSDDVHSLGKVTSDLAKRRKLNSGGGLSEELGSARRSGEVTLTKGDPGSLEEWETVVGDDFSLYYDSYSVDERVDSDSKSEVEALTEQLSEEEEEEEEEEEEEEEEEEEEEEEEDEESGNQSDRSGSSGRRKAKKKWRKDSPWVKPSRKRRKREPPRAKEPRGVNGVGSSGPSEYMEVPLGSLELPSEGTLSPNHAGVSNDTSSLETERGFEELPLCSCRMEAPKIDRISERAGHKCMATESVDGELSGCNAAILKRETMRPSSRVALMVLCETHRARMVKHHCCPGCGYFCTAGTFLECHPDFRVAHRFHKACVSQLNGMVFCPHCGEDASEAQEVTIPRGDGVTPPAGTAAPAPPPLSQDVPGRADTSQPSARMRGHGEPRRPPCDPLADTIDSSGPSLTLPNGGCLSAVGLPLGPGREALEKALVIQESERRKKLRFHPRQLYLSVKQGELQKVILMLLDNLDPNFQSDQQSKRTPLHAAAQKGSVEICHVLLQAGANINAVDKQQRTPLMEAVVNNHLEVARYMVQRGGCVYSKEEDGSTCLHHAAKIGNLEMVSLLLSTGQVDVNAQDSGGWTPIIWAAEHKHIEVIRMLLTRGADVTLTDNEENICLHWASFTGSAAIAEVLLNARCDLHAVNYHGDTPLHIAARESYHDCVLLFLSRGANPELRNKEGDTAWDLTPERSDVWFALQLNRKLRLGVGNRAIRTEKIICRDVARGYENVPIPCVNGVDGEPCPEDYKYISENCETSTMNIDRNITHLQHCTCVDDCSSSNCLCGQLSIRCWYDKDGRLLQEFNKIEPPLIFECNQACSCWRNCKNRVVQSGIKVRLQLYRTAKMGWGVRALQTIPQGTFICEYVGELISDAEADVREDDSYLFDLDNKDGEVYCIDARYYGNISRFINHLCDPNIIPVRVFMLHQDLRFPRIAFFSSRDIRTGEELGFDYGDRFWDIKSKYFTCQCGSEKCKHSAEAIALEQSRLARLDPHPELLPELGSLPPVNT
# T1 sequence (Q9H9B1 2-1298 limits assumed): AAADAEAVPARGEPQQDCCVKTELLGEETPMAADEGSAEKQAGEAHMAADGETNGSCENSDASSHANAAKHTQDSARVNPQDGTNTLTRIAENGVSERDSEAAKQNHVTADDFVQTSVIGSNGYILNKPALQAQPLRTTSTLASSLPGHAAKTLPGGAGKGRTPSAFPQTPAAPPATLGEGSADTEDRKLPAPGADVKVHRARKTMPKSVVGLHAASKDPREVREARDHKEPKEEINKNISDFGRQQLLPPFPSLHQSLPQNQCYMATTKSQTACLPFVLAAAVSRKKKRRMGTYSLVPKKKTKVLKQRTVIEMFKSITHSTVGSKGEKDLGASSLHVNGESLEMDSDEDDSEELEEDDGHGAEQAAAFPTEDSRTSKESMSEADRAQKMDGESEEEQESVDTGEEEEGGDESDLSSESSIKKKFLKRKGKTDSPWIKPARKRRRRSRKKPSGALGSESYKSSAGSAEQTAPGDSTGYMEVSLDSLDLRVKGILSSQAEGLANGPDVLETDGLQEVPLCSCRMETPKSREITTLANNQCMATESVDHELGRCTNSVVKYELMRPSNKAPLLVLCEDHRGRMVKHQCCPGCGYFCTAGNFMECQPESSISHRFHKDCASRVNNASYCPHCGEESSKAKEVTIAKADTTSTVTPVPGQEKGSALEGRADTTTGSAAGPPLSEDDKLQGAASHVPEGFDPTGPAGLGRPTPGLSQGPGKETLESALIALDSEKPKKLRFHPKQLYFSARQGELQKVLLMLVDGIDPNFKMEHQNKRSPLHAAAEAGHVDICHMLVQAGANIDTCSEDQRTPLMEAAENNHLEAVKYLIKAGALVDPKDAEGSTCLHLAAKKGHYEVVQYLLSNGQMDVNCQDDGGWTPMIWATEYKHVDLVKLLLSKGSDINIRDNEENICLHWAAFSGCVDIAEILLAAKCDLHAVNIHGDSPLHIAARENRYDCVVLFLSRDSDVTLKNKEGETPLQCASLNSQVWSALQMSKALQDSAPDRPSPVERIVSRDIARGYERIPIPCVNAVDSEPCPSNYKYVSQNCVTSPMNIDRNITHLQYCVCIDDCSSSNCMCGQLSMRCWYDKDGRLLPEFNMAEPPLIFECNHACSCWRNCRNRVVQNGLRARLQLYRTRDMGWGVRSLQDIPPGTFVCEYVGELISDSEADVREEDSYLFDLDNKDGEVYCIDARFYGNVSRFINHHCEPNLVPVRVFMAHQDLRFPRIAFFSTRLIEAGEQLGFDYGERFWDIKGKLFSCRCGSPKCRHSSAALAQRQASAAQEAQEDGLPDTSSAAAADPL
# B1: MCM4: protein with methylated lysine identified in 3xMBT pull-down (protein, UniProt P33991 2-863, looked up)
# DNA replication licensing …: SSPASTPSRRGSRRGRATPAQTPRSEDARSSPSQRRRGEDSTSTGELQPMPTSPGVDLQSPAAQDVLFSSPPQMHSSAIPLDFDVSSPLTYGTPSSRVEGTPRSGVRGTPVRQRPDLGSAQKGLQVDLQSDGAAAEDIVASEQSLGQKLVIWGTDVNVAACKENFQRFLQRFIDPLAKEEENVGIDITEPLYMQRLGEINVIGEPFLNVNCEHIKSFDKNLYRQLISYPQEVIPTFDMAVNEIFFDRYPDSILEHQIQVRPFNALKTKNMRNLNPEDIDQLITISGMVIRTSQLIPEMQEAFFQCQVCAHTTRVEMDRGRIAEPSVCGRCHTTHSMALIHNRSLFSDKQMIKLQESPEDMPAGQTPHTVILFAHNDLVDKVQPGDRVNVTGIYRAVPIRVNPRVSNVKSVYKTHIDVIHYRKTDAKRLHGLDEEAEQKLFSEKRVELLKELSRKPDIYERLASALAPSIYEHEDIKKGILLQLFGGTRKDFSHTGRGKFRAEINILLCGDPGTSKSQLLQYVYNLVPRGQYTSGKGSSAVGLTAYVMKDPETRQLVLQTGALVLSDNGICCIDEFDKMNESTRSVLHEVMEQQTLSIAKAGIICQLNARTSVLAAANPIESQWNPKKTTIENIQLPHTLLSRFDLIFLLLDPQDEAYDRRLAHHLVALYYQSEEQAEEELLDMAVLKDYIAYAHSTIMPRLSEEASQALIEAYVDMRKIGSSRGMVSAYPRQLESLIRLAEAHAKVRLSNKVEAIDVEEAKRLHREALKQSATDPRTGIVDISILTTGMSATSRKRKEELAEALKKLILSKGKTPALKYQQLFEDIRGQSDIAITKDMFEEALRALADDDFLTVTGKTVRLL
# modifications: methylated lysine
# notes: protein with methylated lysine identified in 3xMBT pull-down
# B2: GTF2I: protein with methylated lysine identified in 3xMBT pull-down (protein, UniProt P78347 2-998, looked up)
# General transcription factor …: AQVAMSTLPVEDEESSESRMVVTFLMSALESMCKELAKSKAEVACIAVYETDVFVVGTERGRAFVNTRKDFQKDFVKYCVEEEEKAAEMHKMKSTTQANRMSVDAVEIETLRKTVEDYFCFCYGKALGKSTVVPVPYEKMLRDQSAVVVQGLPEGVAFKHPENYDLATLKWILENKAGISFIIKRPFLEPKKHVGGRVMVTDADRSILSPGGSCGPIKVKTEPTEDSGISLEMAAVTVKEESEDPDYYQYNIQAGPSETDDVDEKQPLSKPLQGSHHSSEGNEGTEMEVPAEDSTQHVPSETSEDPEVEVTIEDDDYSPPSKRPKANELPQPPVPEPANAGKRKVREFNFEKWNARITDLRKQVEELFERKYAQAIKAKGPVTIPYPLFQSHVEDLYVEGLPEGIPFRRPSTYGIPRLERILLAKERIRFVIKKHELLNSTREDLQLDKPASGVKEEWYARITKLRKMVDQLFCKKFAEALGSTEAKAVPYQKFEAHPNDLYVEGLPENIPFRSPSWYGIPRLEKIIQVGNRIKFVIKRPELLTHSTTEVTQPRTNTPVKEDWNVRITKLRKQVEEIFNLKFAQALGLTEAVKVPYPVFESNPEFLYVEGLPEGIPFRSPTWFGIPRLERIVRGSNKIKFVVKKPELVISYLPPGMASKINTKALQSPKRPRSPGSNSKVPEIEVTVEGPNNNNPQTSAVRTPTQTNGSNVPFKPRGREFSFEAWNAKITDLKQKVENLFNEKCGEALGLKQAVKVPFALFESFPEDFYVEGLPEGVPFRRPSTFGIPRLEKILRNKAKIKFIIKKPEMFETAIKESTSSKSPPRKINSSPNVNTTASGVEDLNIIQVTIPDDDNERLSKVEKARQLREQVNDLFSRKFGEAIGMGFPVKVPYRKITINPGCVVVDGMPPGVSFKAPSYLEISSMRRILDSAEFIKFTVIRPFPGLVINNQLVDQSESEGPVIQESAEPSQLEVPATEEIKETDGSSQIKQEPDPTW
# modifications: methylated lysine
# notes: as for B1
# B3: NHP2L1: protein with methylated lysine identified in 3xMBT pull-down (protein, UniProt P55769 1-128, looked up)
# NHP2-like protein 1: MTEADVNPKAYPLADAHLTKKLLDLVQQSCNYKQLRKGANEATKTLNRGISEFIVMAADAEPLEIILHLPLLCEDKNVPYVFVRSKQALGRACGVSRPVIACSVTIKEGSQLKQQIQSIQQSIERLLV
# Test system: 3×MBT domain of L3MBTL1
# Test: Triple SILAC pull-down, 3xMBT/3xMBTD355N ratio (cytoplasmic, nuclear and chromatin fractions of 293T cells);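 also: proteins quantified with MaxQuant, requiring at least two unique peptides and quantification in both label directions, normalized to the mean of proteins from a digested loading control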
# Type: binding, human
# Settings: SILAC ratio, pull-down 3xMBT vs 3xMBTD355N; experiment with UNC0638 in heavy SILAC media
row,Molecule,3xMBT/D355N UNC Heavy
1,B1,1.92 log base 2
2,B2,3.02 log base 2
3,B3,1.56 log base 2

# Same assay, conditions: SILAC ratio, pull-down 3xMBT vs 3xMBTD355N; experiment with UNC0638 in light SILAC media
row,Molecule,3xMBT/D355N UNC Light
1,B1,2.16 log base 2
2,B2,2.75 log base 2
3,B3,3.46 log base 2

# Target: T1, G9a and GLP
# Test: Triple SILAC pull-down after UNC0638 treatment of 293T cells, DMSO/UNC0638 ratio of protein captured by 3×MBT;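 also: mass spectrometry (Q-Exactive) SILAC quantitation, DMSO/UNC0638 ratio computed after subtracting 3×MBTD355N mutant pull-down background, only proteins with at least twofold 3×MBT over mutant signal considered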
# Type: cell-based
# Parameters: cells were treated for 24 hours with UNC0638 at 2.5 μM or DMSO vehicle control; endogenous in cells; host or cells: HEK 293T
# Settings: SILAC ratio DMSO/UNC0638 of protein pulled down with 3xMBT; UNC0638 in heavy SILAC media
row,Relative to UNC0638 UNC Heavy,Molecule
1,0.24 log base 2,B1
2,0.31 log base 2,B2
3,−0.86 log base 2,B3

# Same assay, conditions: SILAC ratio DMSO/UNC0638 of protein pulled down with 3xMBT; UNC0638 in light SILAC media
row,Relative to UNC0638 UNC Light,Molecule
1,0.15 log base 2,B1
2,0.00 log base 2,B2
3,1.33 log base 2,B3

# Same assay, conditions: average of UNC Light and UNC Heavy experiments
row,Relative to UNC0638 Average,Molecule
1,0.20 log base 2,B1
2,0.16 log base 2,B2
3,0.24 log base 2,B3
